Results taken from patent publication US20240309103A1 (Regeneron, published 2024).
Substitutions are numbered along the chain they refer to.

Legend:
[1] = target: T1, mouse NPR1 extracellular domain expressed with a C-terminal myc-myc-hexahistidine (mNPR1-MMH) (mouse, UniProt P18293 29-469); test: SPR, mAb captured, 37 C
Description: (§1) Equilibrium dissociation constant (KD) for different NPR1 reagents binding to purified anti-NPR1 monoclonal antibodies (mAbs) were determined using a real-time surface plasmon resonance based Biacore 4000 biosensor. All binding studies were performed in 10 mM HEPES, 150 mM NaCl, 3 mM EDTA, and 0.05% v/v Surfactant Tween-20, pH 7.4 (HBS-ET) running buffer at 25° C. and 37° C. The Biacore CM5 sensor chip surface was first derivatized by amine coupling with either mouse anti-human Fc specific mAb (GE Healthcare, #BR100839) or goat anti-human Fcy specific polyclonal antibody (Jackson ImmunoResearch Laboratories, #BR-1008-39) to capture anti-NPR1 mAbs.
Target sequence in this assay (P18293 other isoform, or with tags, fused parts or gaps): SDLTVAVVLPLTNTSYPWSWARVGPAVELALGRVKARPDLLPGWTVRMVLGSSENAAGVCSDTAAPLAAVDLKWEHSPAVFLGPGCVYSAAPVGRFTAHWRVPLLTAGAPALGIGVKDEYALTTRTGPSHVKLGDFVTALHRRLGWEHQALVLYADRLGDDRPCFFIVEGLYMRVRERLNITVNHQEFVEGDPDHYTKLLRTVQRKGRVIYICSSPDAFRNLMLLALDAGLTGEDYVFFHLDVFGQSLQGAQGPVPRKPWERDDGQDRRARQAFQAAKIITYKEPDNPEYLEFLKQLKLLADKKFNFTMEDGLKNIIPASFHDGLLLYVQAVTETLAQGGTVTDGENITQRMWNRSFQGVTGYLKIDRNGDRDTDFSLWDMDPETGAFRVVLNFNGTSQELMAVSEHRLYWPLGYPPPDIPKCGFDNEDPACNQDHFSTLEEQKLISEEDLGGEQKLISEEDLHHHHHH

[2] = target: T2, human NPR1 extracellular domain expressed with a C-terminal mouse IgG2a (hNPR1-mFc) (human); test: SPR, mAb captured, 37 C
T2 construct: also called hNPR1-Fc; human NPR1 dimer
T2 chain: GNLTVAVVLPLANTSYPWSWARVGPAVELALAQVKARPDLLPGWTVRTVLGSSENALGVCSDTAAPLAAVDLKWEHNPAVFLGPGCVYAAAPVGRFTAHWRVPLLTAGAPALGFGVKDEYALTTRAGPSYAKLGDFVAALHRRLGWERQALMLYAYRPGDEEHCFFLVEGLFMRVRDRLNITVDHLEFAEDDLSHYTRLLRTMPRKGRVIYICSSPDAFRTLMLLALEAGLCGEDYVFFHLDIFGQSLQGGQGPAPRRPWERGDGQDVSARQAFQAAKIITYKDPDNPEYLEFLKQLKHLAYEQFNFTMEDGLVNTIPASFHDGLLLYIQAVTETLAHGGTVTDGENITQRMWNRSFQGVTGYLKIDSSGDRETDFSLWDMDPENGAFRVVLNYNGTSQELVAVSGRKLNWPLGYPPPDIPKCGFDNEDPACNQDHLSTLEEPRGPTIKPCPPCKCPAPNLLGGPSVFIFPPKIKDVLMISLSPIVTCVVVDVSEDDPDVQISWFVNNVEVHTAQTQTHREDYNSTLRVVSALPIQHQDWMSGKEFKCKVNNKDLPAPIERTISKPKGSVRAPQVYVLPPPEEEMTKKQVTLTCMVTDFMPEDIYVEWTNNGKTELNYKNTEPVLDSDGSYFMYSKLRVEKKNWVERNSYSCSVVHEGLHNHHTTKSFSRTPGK
Description: as §1

[3] = target: T3, monkey NPR1 extracellular domain expressed with a C-terminal myc-myc-hexahistidine (mfNPR1-MMH) (monkey, UniProt P16066 33-473 (human entry)); test: SPR, mAb captured, 37 C
T3 construct: also called monomeric monkey NPR1
T3 chain: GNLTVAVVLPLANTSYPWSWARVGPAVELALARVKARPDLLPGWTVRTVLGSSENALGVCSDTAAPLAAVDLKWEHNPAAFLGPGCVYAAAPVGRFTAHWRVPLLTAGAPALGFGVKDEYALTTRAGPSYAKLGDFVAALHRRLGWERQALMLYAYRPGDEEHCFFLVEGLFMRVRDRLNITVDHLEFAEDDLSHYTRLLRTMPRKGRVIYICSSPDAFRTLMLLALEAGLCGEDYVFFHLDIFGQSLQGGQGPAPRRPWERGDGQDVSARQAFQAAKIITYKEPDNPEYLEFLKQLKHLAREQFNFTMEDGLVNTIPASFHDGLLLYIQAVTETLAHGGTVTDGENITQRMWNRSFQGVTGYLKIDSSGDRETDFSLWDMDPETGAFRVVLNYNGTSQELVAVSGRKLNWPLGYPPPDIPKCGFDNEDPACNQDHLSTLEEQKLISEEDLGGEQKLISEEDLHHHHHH
Description: as §1

[4] = target: T1, mouse NPR1 extracellular domain …; test: SPR, mAb captured, 25 C
Description: as §1

[5] = target: T2, human NPR1 extracellular domain …; test: SPR, mAb captured, 25 C
Description: as §1

[6] = target: T3, monkey NPR1 extracellular domain …; test: SPR, mAb captured, 25 C
Description: as §1

[7] = target: T4, hNPR1-mFc:hANP or hNPR1-hFc:hANP complex (human, UniProt P01160 124-151); test: SPR, mAb captured, 37C
T4 construct: also called human NPR1 complexed to ANP
In short: (§2)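 Capture surface: anti-human Fc mAb or anti-human Fcγ pAb amine-coupled to CM5; mAbs captured, NPR1 reagent as analyte.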

hNPR1-mFc:hBNP complex [8] = target: T5, hNPR1-mFc:hBNP complex (human, UniProt P16860 103-134); test: SPR, mAb captured, 37C
T5 construct: also called human NPR1 complexed to BNP
In short: as §2

mfNPR1-mFc:hANP complex [9] = target: T6, mfNPR1-mFc:hANP complex (monkey; human, UniProt P01160 124-151); test: SPR, mAb captured, 37C
T6 construct: also called monkey NPR1 complexed to ANP
In short: as §2

mfNPR1-mFc [10] = target: T7, mfNPR1-mFc (monkey); test: SPR, mAb captured, 37C
T7 construct: also called dimeric monkey NPR1
T7 chain: T2 chain with Q33R, V80A, D284E, Y302R, N385T
In short: as §2

[11] = target: T4, hNPR1-mFc:hANP or hNPR1-hFc:hANP complex; test: SPR, mAb captured, 25C
In short: as §2

hNPR1-mFc:hBNP complex [12] = target: T5, hNPR1-mFc:hBNP complex; test: SPR, mAb captured, 25C
In short: as §2

mfNPR1-mFc:hANP complex [13] = target: T6, mfNPR1-mFc:hANP complex; test: SPR, mAb captured, 25C
In short: as §2

mfNPR1-mFc:hBNP complex = target: T8, mfNPR1-mFc:hBNP complex (monkey; human, UniProt P16860 103-134); test: SPR, mAb captured, 25C
T8 construct: also called monkey NPR1 complexed to BNP
In short: as §2

mfNPR1-mFc [14] = target: T7, mfNPR1-mFc; test: SPR, mAb captured, 25C
In short: as §2

B1: mAb22810 (antibody, V domains shown)
VH: EVQLVESGGGLVKPGGSLRLSCVVSGFTFRIYTMNWVRQAPGKGLEWVASISSSSSFINYADSLKGRFTISRDNAQNSLYLQMNSLRAEDTAIYYCARAAGNDVLPGRMDVWGQGTSVTVSS
VL: EIVLTQSPGTLSLSPGERATLSCRASQSVSSNYLAWYQQKPGQVPSLLIYGASSRATGIPDRFSGSGSGTDFTLTITRLEPEDFAVYYCQQYGISPWTFGQGTKVEIK
100 nM Ag Bound (RU) [1]: -2 RU
100 nM Ag Bound (RU) [2]: 9 RU
100 nM Ag Bound (RU) [3]: 0 RU
100 nM Ag Bound (RU) [4]: -1 RU
100 nM Ag Bound (RU) [5]: 4 RU
100 nM Ag Bound (RU) [6]: 1 RU
binding result [6]: no binding (tested: 100 nM)

B2: mAb25508 (antibody, human IgG4, V domains shown)
VH: EVQLVESGGGVVRPGGSLRLSCAASGFNVDDYGMSWVRQIPGKGLEWISGINWNGGRIYYADSMKGRITISRDNAKNSLYLQMNSLRAEDTALYHCVRDQWLVRGLDYWGQGTLVTVSS
VL: DIQMTQSPSSLSASVGDRVTITCRASQGIYNYLAWFQQKPGKAPKSLIYAASSLQSGVPSKFSGSGSGTDFTLTISSLQPEDFATYYCQQYNTYPYTFGQGTKLEIK
100 nM Ag Bound (RU) [7]: 230 RU
Kd [7]: 0.506 nM
koff [7]: 0.000148 s⁻¹
kon [7]: 293000 M⁻¹ s⁻¹
t½ [7]: 1.3 h
100 nM Ag Bound (RU) (hNPR1-mFc:hBNP complex [8]): 236 RU
Kd (hNPR1-mFc:hBNP complex [8]): 0.466 nM
koff (hNPR1-mFc:hBNP complex [8]): 0.000164 s⁻¹
kon (hNPR1-mFc:hBNP complex [8]): 352000 M⁻¹ s⁻¹
t½ (hNPR1-mFc:hBNP complex [8]): 1.17 h
100 nM Ag Bound (RU) (mfNPR1-mFc:hANP complex [9]): 262 RU
Kd (mfNPR1-mFc:hANP complex [9]): 0.355 nM
koff (mfNPR1-mFc:hANP complex [9]): 0.000146 s⁻¹
kon (mfNPR1-mFc:hANP complex [9]): 411000 M⁻¹ s⁻¹
t½ (mfNPR1-mFc:hANP complex [9]): 1.32 h
100 nM Ag Bound (RU) (mfNPR1-mFc [10]): 268 RU
Kd (mfNPR1-mFc [10]): 0.132 nM
koff (mfNPR1-mFc [10]): 8.36e-05 s⁻¹
kon (mfNPR1-mFc [10]): 634000 M⁻¹ s⁻¹
t½ (mfNPR1-mFc [10]): 2.3 h
100 nM Ag Bound (RU) [11]: 199 RU
Kd [11]: 0.34 nM
koff [11]: 8.97e-05 s⁻¹
kon [11]: 264000 M⁻¹ s⁻¹
t½ [11]: 2.15 h
100 nM Ag Bound (RU) (hNPR1-mFc:hBNP complex [12]): 200 RU
Kd (hNPR1-mFc:hBNP complex [12]): 0.343 nM
koff (hNPR1-mFc:hBNP complex [12]): 8.57e-05 s⁻¹
kon (hNPR1-mFc:hBNP complex [12]): 250000 M⁻¹ s⁻¹
t½ (hNPR1-mFc:hBNP complex [12]): 2.24 h
100 nM Ag Bound (RU) (mfNPR1-mFc:hANP complex [13]): 224 RU
Kd (mfNPR1-mFc:hANP complex [13]): 0.233 nM
koff (mfNPR1-mFc:hANP complex [13]): 7.32e-05 s⁻¹
kon (mfNPR1-mFc:hANP complex [13]): 314000 M⁻¹ s⁻¹
t½ (mfNPR1-mFc:hANP complex [13]): 2.63 h
100 nM Ag Bound (RU) (mfNPR1-mFc:hBNP complex): 229 RU
Kd (mfNPR1-mFc:hBNP complex): 0.29 nM
koff (mfNPR1-mFc:hBNP complex): 8.91e-05 s⁻¹
kon (mfNPR1-mFc:hBNP complex): 308000 M⁻¹ s⁻¹
t½ (mfNPR1-mFc:hBNP complex): 2.16 h
100 nM Ag Bound (RU) (mfNPR1-mFc [14]): 230 RU
Kd (mfNPR1-mFc [14]): 0.116 nM
koff (mfNPR1-mFc [14]): 5.98e-05 s⁻¹
kon (mfNPR1-mFc [14]): 515000 M⁻¹ s⁻¹
t½ (mfNPR1-mFc [14]): 3.22 h

B3: mAb25498 (antibody, human IgG4, V domains shown)
VH: QVQLVESGGGVVQPGRSLRLSCVASGFTFSSYGMVWVRQTPGKGLEWVAVIWHDGTNNYYADSVKGRFTISRDNSKNTLYLQMNSLRAEDTAVYYCAREPWLVRGYYYYAMDVWGQGTTVTVSS
VL: not shown
100 nM Ag Bound (RU) [7]: 74 RU
Kd [7]: 13.6 nM
koff [7]: 0.00072 s⁻¹
kon [7]: 53000 M⁻¹ s⁻¹
t½ [7]: 0.267 h
100 nM Ag Bound (RU) (hNPR1-mFc:hBNP complex [8]): 76 RU
Kd (hNPR1-mFc:hBNP complex [8]): 17.9 nM
koff (hNPR1-mFc:hBNP complex [8]): 0.000948 s⁻¹
kon (hNPR1-mFc:hBNP complex [8]): 52900 M⁻¹ s⁻¹
t½ (hNPR1-mFc:hBNP complex [8]): 0.203 h
100 nM Ag Bound (RU) (mfNPR1-mFc:hANP complex [9]): 114 RU
Kd (mfNPR1-mFc:hANP complex [9]): 8.89 nM
koff (mfNPR1-mFc:hANP complex [9]): 0.000445 s⁻¹
kon (mfNPR1-mFc:hANP complex [9]): 50100 M⁻¹ s⁻¹
t½ (mfNPR1-mFc:hANP complex [9]): 0.432 h
100 nM Ag Bound (RU) (mfNPR1-mFc [10]): 170 RU
Kd (mfNPR1-mFc [10]): 4.06 nM
koff (mfNPR1-mFc [10]): 0.000372 s⁻¹
kon (mfNPR1-mFc [10]): 91600 M⁻¹ s⁻¹
t½ (mfNPR1-mFc [10]): 0.518 h
100 nM Ag Bound (RU) [11]: 52 RU
Kd [11]: 6.93 nM
koff [11]: 0.000317 s⁻¹
kon [11]: 45800 M⁻¹ s⁻¹
t½ [11]: 0.607 h
100 nM Ag Bound (RU) (hNPR1-mFc:hBNP complex [12]): 55 RU
Kd (hNPR1-mFc:hBNP complex [12]): 5.28 nM
koff (hNPR1-mFc:hBNP complex [12]): 0.000256 s⁻¹
kon (hNPR1-mFc:hBNP complex [12]): 48500 M⁻¹ s⁻¹
t½ (hNPR1-mFc:hBNP complex [12]): 0.752 h
100 nM Ag Bound (RU) (mfNPR1-mFc:hANP complex [13]): 81 RU
Kd (mfNPR1-mFc:hANP complex [13]): 2.68 nM
koff (mfNPR1-mFc:hANP complex [13]): 0.000112 s⁻¹
kon (mfNPR1-mFc:hANP complex [13]): 41900 M⁻¹ s⁻¹
t½ (mfNPR1-mFc:hANP complex [13]): 1.72 h
100 nM Ag Bound (RU) (mfNPR1-mFc:hBNP complex): 81 RU
Kd (mfNPR1-mFc:hBNP complex): 2.53 nM
koff (mfNPR1-mFc:hBNP complex): 0.000109 s⁻¹
kon (mfNPR1-mFc:hBNP complex): 43200 M⁻¹ s⁻¹
t½ (mfNPR1-mFc:hBNP complex): 1.77 h
100 nM Ag Bound (RU) (mfNPR1-mFc [14]): 128 RU
Kd (mfNPR1-mFc [14]): 2.45 nM
koff (mfNPR1-mFc [14]): 0.000177 s⁻¹
kon (mfNPR1-mFc [14]): 72000 M⁻¹ s⁻¹
t½ (mfNPR1-mFc [14]): 1.09 h
